Assay [1] concerns the target T1, human flt3 on BAF/hflt3 cells (BAF-BO3 cells transfected with human flt3 cDNA) (human, UniProt P36888 27-993).
T1 construct: whole, on cells; also called flt3 Receptor
T1 sequence (looked up): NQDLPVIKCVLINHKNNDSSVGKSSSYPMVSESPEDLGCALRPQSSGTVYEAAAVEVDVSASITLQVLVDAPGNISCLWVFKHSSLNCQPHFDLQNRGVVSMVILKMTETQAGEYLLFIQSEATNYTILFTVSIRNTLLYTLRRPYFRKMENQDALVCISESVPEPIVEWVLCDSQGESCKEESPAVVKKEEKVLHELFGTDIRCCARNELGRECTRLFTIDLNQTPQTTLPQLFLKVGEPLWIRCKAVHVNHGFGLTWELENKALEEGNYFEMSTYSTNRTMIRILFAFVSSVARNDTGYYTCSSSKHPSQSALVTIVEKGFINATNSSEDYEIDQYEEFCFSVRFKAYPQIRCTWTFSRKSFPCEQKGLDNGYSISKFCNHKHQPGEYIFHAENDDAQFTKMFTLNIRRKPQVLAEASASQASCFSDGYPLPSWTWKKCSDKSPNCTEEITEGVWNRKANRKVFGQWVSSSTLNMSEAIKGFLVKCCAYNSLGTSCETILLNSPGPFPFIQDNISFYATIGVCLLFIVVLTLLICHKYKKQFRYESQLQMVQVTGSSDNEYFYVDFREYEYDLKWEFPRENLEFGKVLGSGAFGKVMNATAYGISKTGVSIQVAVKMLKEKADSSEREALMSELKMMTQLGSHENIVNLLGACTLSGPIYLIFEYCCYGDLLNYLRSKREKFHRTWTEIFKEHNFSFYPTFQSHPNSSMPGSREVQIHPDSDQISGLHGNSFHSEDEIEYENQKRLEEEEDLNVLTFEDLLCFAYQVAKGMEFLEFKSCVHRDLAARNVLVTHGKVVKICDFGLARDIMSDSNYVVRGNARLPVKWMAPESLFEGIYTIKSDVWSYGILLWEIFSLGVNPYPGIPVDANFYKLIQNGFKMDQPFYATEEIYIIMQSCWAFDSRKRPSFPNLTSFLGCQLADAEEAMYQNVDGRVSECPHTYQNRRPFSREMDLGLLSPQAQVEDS
Nature of the assay: Kdi: inhibition of binding of radiolabelled yeast-derived flt3-L to BAF-BO3 cells transfected with human flt3. The protocol:
(§1) Binding assays were performed using a phthalate oil separation method as described previously for murine ¹²⁵I-GM-CSF (Park et al., J. Biol. Chem. 261:4177-4183 (1986)). Briefly, BAF-BO3 cells transfected with human flt3 cDNA (0.5-1×10⁶) were incubated with serial dilutions of ¹²⁵I-flt3-L in binding medium (RPMI 1640, 2.5% bovine serum albumin, 0.2% NaN3, 20 mM Hepes, pH 7.2) in 96 well microtiter plates maintained on a mini-orbital shaker (Bellco) at 37° C. for 90 minutes. Inhibition binding assays were carried out by holding the radiolabeled flt3-L concentration constant at 0.3 nM, while the concentration of unlabeled competitor proteins ranged from 150 nM to 0.001 nM. The ratio of Kdi of mutant to wild type flt3-L, determined in at least duplicate, in a given assay was averaged over at least three independent assays and the standard error of the mean (SEM) reported. […]
Specific activity of purified mutant or wild type protein was calculated as the ratio of proliferation activity in BAF/hflt3 cells (units/ml) to concentration of flt3-L protein as determined by amino acid composition (ng/ml). The ratio of specific activity of mutant to wild type flt3-L, determined in duplicate, in a given assay was averaged over at least three independent assays and the standard error of the mean (SEM) is reported. […]

In assay [2] the target is T1, human flt3 on BAF/hflt3 cells (BAF-BO3 …). Put plainly: inhibition of 125I-flt3-L binding to BAF/hflt3 cells, purified protein. The protocol: Binding assays were performed using a phthalate oil separation method as described previously for murine ¹²⁵I-GM-CSF (Park et al., J. Biol. Chem. 261:4177-4183 (1986)). Briefly, BAF-BO3 cells transfected with human flt3 cDNA (0.5-1×10⁶) were incubated with serial dilutions of ¹²⁵I-flt3-L in binding medium (RPMI 1640, 2.5% bovine serum albumin, 0.2% NaN3, 20 mM Hepes, pH 7.2) in 96 well microtiter plates maintained on a mini-orbital shaker (Bellco) at 37° C. for 90 minutes. Inhibition binding assays were carried out by holding the radiolabeled flt3-L concentration constant at 0.3 nM, while the concentration of unlabeled competitor proteins ranged from 150 nM to 0.001 nM. The ratio of Kdi of mutant to wild type flt3-L, determined in at least duplicate, in a given assay was averaged over at least three independent assays and the standard error of the mean (SEM) reported. […] For this assay, cells expressing human flt3 (BAF/hflt3 cells) were constructed from BAF/B03 cells, using a procedure previously described for producing BAF/B03 cells expressing the murine flt3 (Lyman et al., Cell 75:1157-1167 (1993)). Expression of human flt3 by BAF/hflt3 cells was confirmed by examining the capacity of the cells to proliferate in response to soluble flt3-L, and by flow cytometric analysis using biotinylated flt3-L.
^aThe specific activity of purified mutant or wild type protein was determined by taking the ratio of proliferation activity in BAF/hflt3 cells (units/ml) to concentration of flt3-L protein as determined by amino acid composition (ng/ml). The ratio of specific activity of mutant to wild type flt3-L is averaged over three independent assays, and the standard error of the mean (SEM) is reported. ^bThe Kdifor wild type protein is 61 ± 19 pM (n = 2). The ratio of Kₐᵢ of mutant to wild type flt3-L is averaged over two independent assays and the standard deviation is reported.

Assay [3] shares this target. Nature of the assay: direct binding of serial dilutions of 125I-flt3-L to BAF-BO3 cells transfected with human flt3, 37 C, phthalate oil separation (n=7). The method, then:
as §1
(§2) The ordinate is the Log¹⁰ of the value relative to wild type flt3-L, and the abscissa is the flt3-L mutant designation. […] The ratio of Kₐᵢ mutant to wild type flt3-L, determined in at least duplicate, in a given assay is averaged over at least three independent assays and the standard error of the mean (SEM) is reported.

Assay [4] shares this target. Put plainly: Kdi: inhibition by unlabelled flt3-L of 0.3 nM 125I-flt3-L binding to BAF-BO3 cells transfected with human flt3 (n=7). The method, then: as §1, §2
The target is the same in assay [5]. Put plainly: cell-based or functional assay.
The target is the same in assay [6]. Put plainly: Kdi: inhibition of 125I-flt3-L binding to BAF/hflt3 cells, the assays of Table 3.

As usually defined, the Ki is a measure of affinity in units of concentration, obtained from inhibition or displacement. Lower therefore signals a stronger hold on the target. In general, Kd refers to a measure of binding affinity in units of concentration. Read a low Kd as a tighter complex.

B1: recombinant CHO-derived human flt3-L, which has native human sequence (ligand)
chain: TQDCSFQHSPISSDFAVKIRELSDYLLQDYPVTVASNLQDEELCGGLWRLVLAQRWMERLKTVAGSKMQGLLERVNTEIHFVTKCAFQPPPSCLRFVQTNISRLLQETSEQLVALKPWITRQNFSRCLELQCQPDSSTLPPPWSPRPLEATAPTAPQP
For the molecule B1, the inhibitory constant (Ki) in assay [1] was 80 pM.

B2: wild type flt3-L (yeast-derived recombinant human flt3 Ligand) (ligand)
chain: LSGTQDCSFQHSPISSDFAVKIRELSDYLLQDYPVTVASNLQDEELCGGLWRLVLAQRWMERLKTVAGSKMQGLLERVNTEIHFVTKCAFQPPPSCLRFVQTNISRLLQETSEQLVALKPWITRQNFARCLELQCQPDSSTLPPPWSPRPLEATAP
notes: Secreted from yeast (alpha-factor leader, final plasmid PIXY797); Leu-Ser-Gly stands before Thr1 of the mature protein (80% of chains; 20% begin at Ser); Noncovalent dimer (dimer peak collected); also called WT; 125I-flt3-L (radiolabelled form)
Turning to B2, in assay [2], the “Kai MUT / Kai Wt” value is 1 ratio to wild type. The same molecule yielded a Kd in assay [3] of 130 pM. In addition, the results for the Ki in assay [4] and in assay [6] were 90 pM and 61 pM, respectively. Also, the “Sp.Ac. MUT / Sp.Ac. Wt (BAF/hflt3 cell proliferation units/ml per ng/ml purified protein)” value in assay [5] is 1 ratio to wild type.

These data come from patent US20020111475A1 (IMMUNEX, published 2002).
